# PMC7046716, “Oligomerization and characteristics of phosphoenolpyruvate carboxylase in Synechococcus PCC 7002” (Scientific Reports, 2020)
# Values joined by “and” are separate entries in the source; they are usually repeats but may differ in a detail not shown here. Equal entries are not always repeated.
# Experiments:
# [1] = system: T1, PEPc PCC 7002 (Strep-column purified, mixed oligomer population); experiment: malate dehydrogenase-coupled NADH assay, […] nm, Hanes-Woolf plot; type: biochemical, Picosynechococcus sp. PCC 7002; conditions: pH 7.5, 35 °C, mixed dimer/tetramer
# T1 construct: gene ppc; N-terminal Strep-tag kept, E. coli BL21, pETBB; dimer/tetramer mixture purified with Mg2+
# [2] = system: T2, T_PEPc PCC 7002 (tetramer fraction of PEPc from Synechococcus PCC 7002); experiment: as above; type: biochemical, Picosynechococcus sp. PCC 7002; conditions: pH 8.0, 35 °C, SEC tetramer fraction
# T2 construct: gene ppc; N-terminal Strep-tag kept, E. coli BL21, pETBB
# [3] = molecular target: Phosphoenolpyruvate carboxylase (PEPc) from Synechococcus PCC 7002 (Synechococcus PCC 7002); experiment: SEC; HiLoad 16/60 Superdex 200, 4 °C, TBS pH 8.0 with 5 mM PEP; 500 µg protein at 0.87 mg/ml; dimer and tetramer peaks
# [4] = molecular target: Phosphoenolpyruvate carboxylase (PEPc) from Synechococcus PCC 7002 (Synechococcus PCC 7002); experiment: SEC; HiLoad 16/60 Superdex 200, 4 °C, TBS pH 8.0 with 5 mM NaHCO3; 500 µg protein at 0.87 mg/ml; dimer and tetramer peaks
# [5] = molecular target: Phosphoenolpyruvate carboxylase (PEPc) from Synechococcus PCC 7002 (Synechococcus PCC 7002); experiment: SEC; HiLoad 16/60 Superdex 200, 4 °C, TBS pH 8.0 with 10 mM MgCl2 (Mg_10); 500 µg protein at 0.87 mg/ml; dimer and tetramer peaks
# [6] = molecular target: Phosphoenolpyruvate carboxylase (PEPc) from Synechococcus PCC 7002 (Synechococcus PCC 7002); experiment: SEC; HiLoad 16/60 Superdex 200, 4 °C, TBS pH 8.0 with 25 mM MgCl2 (Mg_25); 500 µg protein at 0.87 mg/ml; dimer and tetramer peaks
# [7] = molecular target: Phosphoenolpyruvate carboxylase (PEPc) from Synechococcus PCC 7002 (Synechococcus PCC 7002); experiment: SEC; HiLoad 16/60 Superdex 200, 4 °C, TBS pH 8.0 with 10 mM MgCl2 and 5 mM PEP; 500 µg protein at 0.87 mg/ml; dimer and tetramer peaks
# [8] = molecular target: Phosphoenolpyruvate carboxylase (PEPc) from Synechococcus PCC 7002 (Synechococcus PCC 7002); experiment: SEC; HiLoad 16/60 Superdex 200, 4 °C, TBS pH 8.0 with 5 mM NaHCO3 and 5 mM PEP; 500 µg protein at 0.87 mg/ml; dimer and tetramer peaks
# [9] = molecular target: Phosphoenolpyruvate carboxylase (PEPc) from Synechococcus PCC 7002 (Synechococcus PCC 7002); experiment: SEC; HiLoad 16/60 Superdex 200, 4 °C, TBS pH 8.0 with 10 mM MgCl2 and 5 mM NaHCO3; 500 µg protein at 0.87 mg/ml; dimer and tetramer peaks
# [10] = molecular target: Phosphoenolpyruvate carboxylase (PEPc) from Synechococcus PCC 7002 (Synechococcus PCC 7002); experiment: SEC; HiLoad 16/60 Superdex 200, 4 °C, TBS pH 8.0 with 10 mM MgCl2, 5 mM NaHCO3 and 5 mM PEP (in vitro reaction); 500 µg protein at 0.87 mg/ml; dimer and tetramer peaks
# [11] = molecular target: Phosphoenolpyruvate carboxylase (PEPc) from Synechococcus PCC 7002 (Synechococcus PCC 7002); experiment: SEC-SAXS; Shodex KW-403 4.6 ml column, room temperature, 50 µl protein at 6.5 or 0.87 mg/ml in TBS pH 8.0 or TBS with 25 mM MgCl2; beamline B21, Diamond Light Source; three peaks analysed separately
# [12] = molecular target: Phosphoenolpyruvate carboxylase (PEPc) from Synechococcus PCC 7002 (Synechococcus PCC 7002); experiment: SEC; HiLoad 16/60 Superdex 200, 4 °C, TBS (100 mM Tris-HCl, 150 mM NaCl) pH 8.0, no addition; 500 µg protein at 0.87 mg/ml, incubated 30 min at room temperature in the same buffer; dimer and tetramer peaks
# [13] = 10 mM MgCl2, co-substrate NaHCO3 (5 mM in the standard assay)
# [14] = 10 mM MgCl2, co-substrate PEP (5 mM in the standard assay)
compound,measurement,setting,value
C=C(OP(=O)(O)O)C(=O)O [PEP],Km,[1]; [13],1060 µM
same,Km,[2]; [13],770 µM
Phosphoenolpyruvate carboxylase (PEPc) from Synechococcus PCC 7002 (enzyme),ratio tetramer:dimer (peak values) (tetramer:dimer),[3],1.1
same,stoichiometry N,[3],4 and 2
same,ratio tetramer:dimer (peak values) (tetramer:dimer),[4],0
same,stoichiometry N,[4],2
same,ratio tetramer:dimer (peak values) (tetramer:dimer),[5],0
same,stoichiometry N,[5],2
same,ratio tetramer:dimer (peak values) (tetramer:dimer),[6],1.4
same,stoichiometry N,[6],4 and 2
same,ratio tetramer:dimer (peak values) (tetramer:dimer),[7],1.3
same,stoichiometry N,[7],4 and 2
same,ratio tetramer:dimer (peak values) (tetramer:dimer),[8],0.8
same,stoichiometry N,[8],4 and 2
same,ratio tetramer:dimer (peak values) (tetramer:dimer),[9],0.8
same,stoichiometry N,[9],4 and 2
same,stoichiometry N,[10],4 and 2
same,stoichiometry N,[11],4 and 2
same,ratio tetramer:dimer (peak values) (tetramer:dimer),[12],0
same,stoichiometry N,[12],2
O=C(O)O [HCO3^−],Km,[1]; [14],970 µM
same,Km,[2]; [14],240 µM
